Results: patent US20070212365A1

How the values were obtained:
[1] = molecular target: synthetic peptide … (antigen from mpf00920 polypeptide); experiment: ELISA on the antigen; pre-immune serum at 16000-fold dilution
[2] = molecular target: synthetic peptide … (antigen from mpf00920 polypeptide); experiment: ELISA on the antigen; pre-immune serum at 1000-fold dilution
[3] = molecular target: synthetic peptide … (antigen from mpf00920 polypeptide); experiment: ELISA on the antigen; pre-immune serum at 2000-fold dilution
[4] = molecular target: synthetic peptide … (antigen from mpf00920 polypeptide); experiment: ELISA on the antigen; pre-immune serum at 4000-fold dilution
[5] = molecular target: synthetic peptide … (antigen from mpf00920 polypeptide); experiment: ELISA on the antigen; pre-immune serum at 8000-fold dilution

“control serum (rabbit serum without immunization)” showed an absorbance (490 nm) (absorbance (490 nm)) [1] of 0.076, an absorbance (490 nm) (absorbance (490 nm)) [2] of 0.171 and an absorbance (490 nm) (absorbance (490 nm)) [3] of 0.101. The absorbance (490 nm) (absorbance (490 nm)) [4] was 0.089 and the absorbance (490 nm) (absorbance (490 nm)) [5] was 0.084.
